What is called Kd is the equilibrium constant for the complex coming apart. Low values mean higher affinity, high ones lower affinity. By EC50 is commonly meant the concentration needed to bring the measured effect to its halfway point.

Assay [1] deals with T1, human OX40 on cells (CHO-hOX40, 293HEK-hOX40, Jurkat-hOX40, activated primary CD4+ T cells) (human, UniProt P43489 29-277).
T1 construct: whole, on cells; The cell type is told in each assay; also called CHO-OX40
T1 sequence (looked up): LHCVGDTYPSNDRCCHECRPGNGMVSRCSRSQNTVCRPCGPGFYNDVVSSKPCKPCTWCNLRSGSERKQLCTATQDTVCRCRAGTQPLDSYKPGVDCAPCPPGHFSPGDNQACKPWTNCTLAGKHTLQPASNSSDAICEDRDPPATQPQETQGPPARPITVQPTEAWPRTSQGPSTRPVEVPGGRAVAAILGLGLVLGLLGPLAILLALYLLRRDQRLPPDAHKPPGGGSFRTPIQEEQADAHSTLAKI
Put plainly: flow cytometry, 293HEK-hOX40, 200 nM.

In assay [2] the target is T1, human OX40 on cells (CHO-hOX40, …). Put plainly: flow cytometry, 293HEK-hOX40, 40 nM. In general terms: A flow cytometer gives signals particle by particle.
Assay [3] shares this target. Put plainly: flow cytometry, MFI on CHO-hOX40 over wild-type CHO.
Assay [4] shares this target. Description: flow cytometry, 293HEK-hOX40, 1.6 nM.
Assay [5] has as its target T2, human OX40_Fc (R&D Systems) (human, UniProt P43489 29-216).
T2 construct: Bought
Put plainly: BLI, IgG1 on tip, hOX40-Fc 50 nM, avid. In general terms: In BLI a coated tip is dipped into the sample, and binding shifts an interference pattern.

The target of assay [6] is T3, mouse OX40Fc (Acro Biosystems) (mouse, UniProt P47741 20-211, limits assumed).
T3 construct: Bought; not shown: Fc
T3 sequence (looked up): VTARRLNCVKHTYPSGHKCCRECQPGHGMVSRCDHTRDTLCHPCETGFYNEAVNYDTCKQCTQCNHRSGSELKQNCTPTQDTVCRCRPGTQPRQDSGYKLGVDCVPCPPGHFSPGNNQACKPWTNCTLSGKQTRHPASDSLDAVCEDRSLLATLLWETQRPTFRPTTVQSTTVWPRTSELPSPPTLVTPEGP
Description: BLI, IgG1 on tip, mouse OX40-Fc in solution.

Assay [7] deals with T1, human OX40 on cells (CHO-hOX40, …). Description: cell-based or functional assay.
Assay [8] has the same target. Put plainly: flow cytometry, CHO-hOX40, 100 nM.
Assay [9] has the same target. Put plainly: flow cytometry, CHO-hOX40, 100 nM blocker, competitor OX40L-hFc-fluorescein.
Assay [10] has as its target T4, cyno OX40_Fc (Acro Biosystems) (cyno).
T4 construct: Bought
Description: BLI, IgG1 on tip, cyno OX40-Fc 100 nM, avid.

The target of assay [11] is T1, human OX40 on cells (CHO-hOX40, …). Description: flow cytometry, 293HEK-hOX40, 8 nM.
For assay [12] the target is unchanged. Put plainly: flow cytometry, activated CD4+ T cells, donor 2, 100 nM.
Assay [13] has the same target. Description: flow cytometry, activated CD4+ T cells, donor 1, 100 nM.
Assay [14] has the same target. Put plainly: flow cytometry, CHO-hOX40, 100 nM. This is another data set of the same source.
Assay [15] shares this target. Description: flow cytometry, CHO-hOX40, 0.09765625 nM.
For assay [16] the target is unchanged. Description: flow cytometry, CHO-hOX40, 25 nM.
The target is the same in assay [17]. Description: flow cytometry, CHO-hOX40, 12.5 nM.
Assay [18] has the same target. Put plainly: flow cytometry, CHO-hOX40, 0.78125 nM.
For assay [19] the target is unchanged. Put plainly: flow cytometry, CHO-hOX40, IgG2 made in 293HEK.
For assay [20] the target is unchanged. Description: flow cytometry, CHO-hOX40, 1.5625 nM.
The target is the same in assay [21]. Put plainly: cell-based or functional assay. The source holds these as a separate data set.
Assay [22] shares this target. Description: flow cytometry, CHO-hOX40, 0.390625 nM.
Assay [23] has the same target. Put plainly: flow cytometry, CHO-hOX40, 0.048828125 nM.
Assay [24] has the same target. Put plainly: flow cytometry, CHO-hOX40, 6.25 nM.
Assay [25] shares this target. Put plainly: flow cytometry, CHO-hOX40, 50 nM.
Assay [26] shares this target. Put plainly: flow cytometry, CHO-hOX40, 3.125 nM.
Assay [27] shares this target. Put plainly: flow cytometry, CHO-hOX40, 200 nM.
Assay [28] has the same target. Description: flow cytometry, CHO-hOX40, 0.1953125 nM.
The target is the same in assay [29]. Description: flow cytometry, CHO-hOX40, 0.024414063 nM.

B1: ADI-20065, IgG1 format (antibody, V domains shown)
VH: QLQLQESGPGLVKPSETLSLTCTVSGGSISSSSYYWGWIRQPPGKGLEWIGSIYYSGSTYYNPSLKSRVTISVDTSKNQFSLKLSSVTAADTAVYYCARDPGYSASPNWFDPWGQGTLVTVSS
VL: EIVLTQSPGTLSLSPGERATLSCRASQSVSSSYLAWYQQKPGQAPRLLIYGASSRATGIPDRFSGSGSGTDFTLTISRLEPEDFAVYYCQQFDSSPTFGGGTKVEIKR
notes: Made in yeast
With B1, the MFI in [1] was found to be 3.03e+06 MFI; in assay [2] it was 2.42e+06 MFI; in assay [4] it was 808000 MFI; in [11], 2.46e+06 MFI; in [12] it was 209000 MFI; in [13], 153000 MFI. This molecule also returned a Fold difference in [3] of 2240 fold. Also, the dissociation constant Kd in assay [5] was 0.352 nM; in assay [10], 5.77 nM. Moreover, the binding result in assay [6] is “no binding (tested: 100 nM)”. The “NFkB-Luc fold change in Jurkat stimulated by PHA+ anti-CD28” value in assay [7] was determined as 2.11 fold over IgG4 control. In addition, the “NFkB-Luc fold change in Jurkat stimulated by anti-CD3+ anti-CD28” value in [7] amounted to 1.19 fold over IgG4 control. Further, the “CHO-OX40 binding intensity (MFI)” value in [8] worked out at 157000 MFI. The “MFI of OX40L signal on CHO-OX40 cells” value in [9] turned out to be 33700 MFI.

B2: ADI-20112, IgG2 format (antibody)
heavy: QVQLVESGGGVVQPGRSLRLSCAASGFTFSSYGMHWVRQAPGKGLEWVAVISYDGSNKYYADSVKGRFTISRDNSKNTLYLQMNSLRAEDTAVYYCARGRPWYSETGTSAFDIWGQGTMVTVSSASTKGPSVFPLAPCSRSTSESTAALGCLVKDYFPEPVTVSWNSGALTSGVHTFPAVLQSSGLYSLSSVVTVPSSNFGTQTYTCNVDHKPSNTKVDKTVERKCCVECPPCPAPPVAGPSVFLFPPKPKDTLMISRTPEVTCVVVDVSHEDPEVQFNWYVDGVEVHNAKTKPREEQFNSTFRVVSVLTVVHQDWLNGKEYKCKVSNKGLPAPIEKTISKTKGQPREPQVYTLPPSREEMTKNQVSLTCLVKGFYPSDIAVEWESNGQPENNYKTTPPMLDSDGSFFLYSKLTVDKSRWQQGNVFSCSVMHEALHNHYTQKSLSLSPG
light: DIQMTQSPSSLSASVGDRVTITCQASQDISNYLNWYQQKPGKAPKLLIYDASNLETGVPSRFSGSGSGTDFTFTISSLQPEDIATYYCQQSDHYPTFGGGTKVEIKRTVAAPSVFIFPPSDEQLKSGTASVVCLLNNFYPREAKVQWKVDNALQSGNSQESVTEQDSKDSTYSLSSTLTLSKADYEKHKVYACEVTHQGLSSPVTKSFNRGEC
notes: Made in 293HEK or CHO cells; also called ADI-20112-g2
For B2, the MFI in assay [14] was 1.78e+06 MFI; in assay [15], 48500 MFI; in assay [16] it was 1.83e+06 MFI; in assay [17] it was 1.34e+06 MFI; in [18], 314000 MFI; in assay [20], 602000 MFI. Further, the MFI stood at 189000 MFI in assay [22]; 25700 MFI in assay [23]; 1.43e+06 MFI in assay [24]; 1.55e+06 MFI in assay [25]; 985000 MFI in assay [26]; 1.79e+06 MFI in [27]. Also, the MFI in [28] amounted to 94200 MFI; in [29], 24600 MFI. This molecule showed an EC50 in assay [19] of 2.78 nM. The “EC50, NFkB-luciferase reporter in Jurkat-hOX40 mixed with Raji cells” value in [21] is 0.246 nM.

B3: ADI-20118, IgG2 format (antibody)
heavy: QVQLVQSGAEVKKPGASVKVSCKASGYTFTSYAISWVRQAPGQGLEWMGWISAYNGNTNYAQKLQGRVTMTTDTSTSTAYMELRSLRSDDTAVYYCARSGGGSGPNWFDPWGQGTLVTVSSASTKGPSVFPLAPCSRSTSESTAALGCLVKDYFPEPVTVSWNSGALTSGVHTFPAVLQSSGLYSLSSVVTVPSSNFGTQTYTCNVDHKPSNTKVDKTVERKCCVECPPCPAPPVAGPSVFLFPPKPKDTLMISRTPEVTCVVVDVSHEDPEVQFNWYVDGVEVHNAKTKPREEQFNSTFRVVSVLTVVHQDWLNGKEYKCKVSNKGLPAPIEKTISKTKGQPREPQVYTLPPSREEMTKNQVSLTCLVKGFYPSDIAVEWESNGQPENNYKTTPPMLDSDGSFFLYSKLTVDKSRWQQGNVFSCSVMHEALHNHYTQKSLSLSPG
light: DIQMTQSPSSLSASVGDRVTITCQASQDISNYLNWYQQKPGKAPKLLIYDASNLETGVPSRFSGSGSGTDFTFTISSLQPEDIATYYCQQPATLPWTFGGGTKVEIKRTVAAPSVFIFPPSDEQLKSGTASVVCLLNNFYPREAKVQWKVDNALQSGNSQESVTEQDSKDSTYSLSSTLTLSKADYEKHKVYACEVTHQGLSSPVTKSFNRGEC
notes: Made in 293HEK cells
In the case of B3, the MFI in [14] was found to be 1.53e+06 MFI; in assay [15], 36800 MFI; in assay [16], 1.5e+06 MFI; in assay [17], 1.13e+06 MFI; in assay [18], 207000 MFI; in [20], 352000 MFI. In addition, the MFI was found to be 120000 MFI in [22]; 18400 MFI in [23]; 889000 MFI in assay [24]; 1.38e+06 MFI in assay [25]; 600000 MFI in assay [26]; 1.72e+06 MFI in assay [27]. Also, the figures for the MFI in assay [28] and in assay [29] were 60400 MFI and 16500 MFI, respectively. The EC50 in [19] came out at 5.84 nM.

(Values after patent US20200140562A1 (Innovent, published 2020).)
